Source: patent JP2014141434A (dated 2014)
Changes are numbered by the printed parent chain.

T1: N末端FLAG−tag付加型カニクイザルROBO4 cynoROBO4−2 (cynomolgus monkey, UniProt Q8WZ75 28-1007 (human entry))
T1 construct: also called pCI−FLAG−cynoROBO4−2
T1 chain: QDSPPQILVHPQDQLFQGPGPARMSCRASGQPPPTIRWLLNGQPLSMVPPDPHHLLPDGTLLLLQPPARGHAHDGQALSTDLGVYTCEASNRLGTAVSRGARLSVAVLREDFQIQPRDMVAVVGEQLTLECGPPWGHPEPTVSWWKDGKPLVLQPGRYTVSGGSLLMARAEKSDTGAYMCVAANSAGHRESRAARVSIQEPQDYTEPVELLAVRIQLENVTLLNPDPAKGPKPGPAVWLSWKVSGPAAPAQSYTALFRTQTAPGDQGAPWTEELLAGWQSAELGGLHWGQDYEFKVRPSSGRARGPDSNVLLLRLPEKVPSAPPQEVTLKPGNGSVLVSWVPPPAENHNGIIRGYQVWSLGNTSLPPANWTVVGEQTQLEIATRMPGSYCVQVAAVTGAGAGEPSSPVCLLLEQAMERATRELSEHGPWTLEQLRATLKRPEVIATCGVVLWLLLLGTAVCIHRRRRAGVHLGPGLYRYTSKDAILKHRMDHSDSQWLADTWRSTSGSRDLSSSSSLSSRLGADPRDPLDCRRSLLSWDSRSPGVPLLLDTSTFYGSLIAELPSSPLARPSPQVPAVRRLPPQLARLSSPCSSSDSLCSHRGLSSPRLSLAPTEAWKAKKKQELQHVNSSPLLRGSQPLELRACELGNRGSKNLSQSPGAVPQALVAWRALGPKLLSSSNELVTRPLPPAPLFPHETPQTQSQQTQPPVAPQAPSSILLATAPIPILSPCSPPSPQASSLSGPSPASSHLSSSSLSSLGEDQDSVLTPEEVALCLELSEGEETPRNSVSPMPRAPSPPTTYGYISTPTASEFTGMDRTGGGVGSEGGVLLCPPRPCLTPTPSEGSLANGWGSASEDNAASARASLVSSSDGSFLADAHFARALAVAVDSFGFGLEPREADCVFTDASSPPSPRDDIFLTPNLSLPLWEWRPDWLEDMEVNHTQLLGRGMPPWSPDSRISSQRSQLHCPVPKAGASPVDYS

T2: N末端FLAG−tag付加型カニクイザルROBO4 cynoROBO4−1 (cynomolgus monkey, UniProt Q8WZ75 28-1007 (human entry))
T2 construct: also called pCI−FLAG−cynoROBO4−1
T2 chain: T1 chain with R69W, T175A, R192H, L423P, L549P, L567P, L603F

T3: rROBO4−ECD (ヒトROBO4細胞外領域ポリペプチド) (human, UniProt Q8WZ75 28-461)
T3 construct: It was cloned in pEF6/V5-His-TOPO; also called ヒトROBO4−ECD; rROBO4-ECD
T3 sequence: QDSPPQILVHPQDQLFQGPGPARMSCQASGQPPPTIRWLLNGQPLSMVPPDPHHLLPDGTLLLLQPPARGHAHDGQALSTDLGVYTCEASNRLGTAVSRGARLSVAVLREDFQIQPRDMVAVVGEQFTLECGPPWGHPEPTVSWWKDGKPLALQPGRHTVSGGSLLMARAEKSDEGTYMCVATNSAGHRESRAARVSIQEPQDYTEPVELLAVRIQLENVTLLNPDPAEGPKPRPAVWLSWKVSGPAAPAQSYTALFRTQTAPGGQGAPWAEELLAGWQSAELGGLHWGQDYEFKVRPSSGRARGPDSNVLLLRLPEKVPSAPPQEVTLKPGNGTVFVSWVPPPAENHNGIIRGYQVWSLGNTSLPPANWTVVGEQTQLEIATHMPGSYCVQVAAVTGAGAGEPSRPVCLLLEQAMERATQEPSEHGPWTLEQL

B1: ヒト化MAb1抗体 H−2143 (antibody, human IgG2, kappa, V domains shown)
VH: EVQLVESGGGLVQPGGSLRLSCAASGFTFSTYAMSWVRQAPGKRLEWVATISQGGTYTYYPDSVKGRFTISRDNAKNTLYLQMNSLRAEDTAVYYCARLIYYDYLDYWGQGTLVTVSS
VL: DIVMTQSPLSLPVTLGEPASISCRSSQSLENENKNLYLNWYLQKPGQSPQLLIYRVSNRFSGVPDRFSGSGSGTDFTLKISRVEAEDVGVYYCLQVTHVPWTFGPGTKVDIKR
notes: Humanised IgG2 / kappa; also called H-2143; hMAb1-H4 / hMAb1-L2
B2: ヒト化MAb1抗体 H−2140 (antibody, human IgG2, kappa, V domains shown)
VH: B1 VH
VL: B1 VL with E32S, K34G, L36T
notes: Humanised IgG2 / kappa; also called H-2140; hMAb1-H4 / hMAb1-L1
B3: ヒト化MAb1抗体 H−1143 (antibody, human IgG2, kappa, V domains shown)
VH: B1 VH with R44G
VL: B1 VL
notes: Humanised IgG2 / kappa; also called H-1143; hMAb1-H2 / hMAb1-L2
B4: 抗ROBO4マウスモノクローナル抗体 MAb1 (antibody, V domains shown)
VH: EVQLVESGGGLVKPGGSLKLSCAASGFTFSTYAMSWVRQTPEKRLEWVATISNGGTYTYYPDSVKGRFTISRDNAENTLYLQMSSLRSEDTAMYFCARLIYYDYLDYWGHGTTLTVSS
VL: DAVMTQTPLSLPVSLGDQASISCRSSQSLENSNGNTYLNWYFQKPGQSPQLLIYRVSNRFSGVLDRFSGSGSGTDFTLKISRVEAEDFGVYFCLQVTHVPWTFGGGTKLEIKR
notes: Mouse IgG1 (gamma 1) / kappa from a hybridoma; The constant regions are not in the listing; also called MAb1

Molecular target: T1, N末端FLAG−tag付加型カニクイザルROBO4 cynoROBO4−2
Experiment: flow cytometry, transfected HEK293 cells

Row | Binder | binding result
1 | B1 | binds
2 | B2 | binds
3 | B3 | binds

Molecular target: T4, N末端FLAG−tag付加型ヒトROBO1 (human, UniProt Q9Y6N7 58-1651)
T4 construct: also called hROBO1; pCI−FLAG−hROBO1
T4 sequence (Q9Y6N7 other isoform, or with tags, fused parts or gaps): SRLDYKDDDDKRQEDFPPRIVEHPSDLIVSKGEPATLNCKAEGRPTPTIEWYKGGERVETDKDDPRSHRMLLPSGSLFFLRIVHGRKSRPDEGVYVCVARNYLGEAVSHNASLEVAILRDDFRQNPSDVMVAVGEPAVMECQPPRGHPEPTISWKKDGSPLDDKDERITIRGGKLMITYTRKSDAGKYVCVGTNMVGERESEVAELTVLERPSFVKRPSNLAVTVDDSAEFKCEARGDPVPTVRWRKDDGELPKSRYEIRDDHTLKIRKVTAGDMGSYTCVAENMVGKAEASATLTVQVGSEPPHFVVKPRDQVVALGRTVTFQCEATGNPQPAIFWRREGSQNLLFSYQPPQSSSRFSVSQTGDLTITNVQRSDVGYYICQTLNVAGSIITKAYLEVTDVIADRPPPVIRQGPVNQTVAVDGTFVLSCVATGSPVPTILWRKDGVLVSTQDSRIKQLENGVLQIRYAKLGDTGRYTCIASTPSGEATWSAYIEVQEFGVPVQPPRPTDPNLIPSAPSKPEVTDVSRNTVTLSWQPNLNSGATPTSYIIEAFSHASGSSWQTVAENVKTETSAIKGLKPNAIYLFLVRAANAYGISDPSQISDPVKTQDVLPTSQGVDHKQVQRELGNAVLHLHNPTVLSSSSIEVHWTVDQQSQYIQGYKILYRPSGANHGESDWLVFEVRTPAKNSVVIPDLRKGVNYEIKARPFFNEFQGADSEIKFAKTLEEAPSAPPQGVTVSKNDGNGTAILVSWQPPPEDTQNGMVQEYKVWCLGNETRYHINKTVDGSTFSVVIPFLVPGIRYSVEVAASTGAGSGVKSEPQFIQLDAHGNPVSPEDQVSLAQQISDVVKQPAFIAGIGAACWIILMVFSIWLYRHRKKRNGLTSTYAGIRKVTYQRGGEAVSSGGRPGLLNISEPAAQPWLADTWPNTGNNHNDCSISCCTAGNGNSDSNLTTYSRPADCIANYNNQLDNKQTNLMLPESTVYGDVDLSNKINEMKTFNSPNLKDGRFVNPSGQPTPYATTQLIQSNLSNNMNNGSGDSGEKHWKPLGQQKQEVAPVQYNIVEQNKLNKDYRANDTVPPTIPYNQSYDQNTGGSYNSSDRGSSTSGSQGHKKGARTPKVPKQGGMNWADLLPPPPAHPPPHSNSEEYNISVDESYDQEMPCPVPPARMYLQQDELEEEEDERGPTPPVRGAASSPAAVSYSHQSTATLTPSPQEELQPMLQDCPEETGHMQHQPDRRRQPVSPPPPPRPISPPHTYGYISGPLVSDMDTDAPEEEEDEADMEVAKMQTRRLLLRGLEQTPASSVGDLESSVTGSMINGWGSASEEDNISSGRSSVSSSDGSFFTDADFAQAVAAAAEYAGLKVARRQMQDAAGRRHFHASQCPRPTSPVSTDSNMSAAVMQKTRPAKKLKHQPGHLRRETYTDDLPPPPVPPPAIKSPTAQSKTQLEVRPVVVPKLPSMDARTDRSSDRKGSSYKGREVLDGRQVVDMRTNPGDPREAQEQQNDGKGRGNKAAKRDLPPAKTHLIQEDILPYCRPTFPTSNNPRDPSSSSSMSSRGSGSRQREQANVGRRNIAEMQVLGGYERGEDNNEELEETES
Experiment: flow cytometry, transfected HEK293 cells

Row | Binder | binding result
4 | B1 | no binding (tested: 10 μg/mL (method of 4)-4-2))
5 | B2 | no binding (tested: 10 μg/mL (method of 4)-4-2))
6 | B3 | no binding (tested: 10 μg/mL (method of 4)-4-2))
7 | B4 | no binding (tested: 10 μg/mL)

Molecular target: T2, N末端FLAG−tag付加型カニクイザルROBO4 cynoROBO4−1
Experiment: flow cytometry, transfected HEK293 cells

Row | Binder | binding result
8 | B1 | binds
9 | B2 | binds
10 | B3 | binds

Molecular target: T3, rROBO4−ECD (ヒトROBO4細胞外領域ポリペプチド)
Experiment: SPR, Biacore 3000; antibody captured by anti-human IgG on CM5 chip, rROBO4-ECD (0.1-200 nM) as analyte, 1:1 model

Row | Binder | Kd
11 | B1 | 1.7 nM
12 | B2 | 1.8 nM
13 | B3 | 3.5 nM
